B1: mAb10971 (antibody, V domains shown)
VH: EVQLVESGGGLIQPGGSLRLSCAASGVTVSSNYMSWVRQAPGKGLEWVSVIYSGGSTFYSDSVKGRFSISRDNSKNTLYLQMNSLRAEDTAVYYCARDLYYYGMDVWGQGTTVTVSS
VL: DIQLTQSPSFLSASVGDRVTITCRASQGISTYLAWYQQKPGKAPKLLIYAASTLQSGVPSRFSGSGSGTEFTLTISSLQPEDFATYYCQQLDSYPGLTFGGGTKVEIKR
B2: mAb10957 (antibody, V domains shown)
VH: B1 VH with I12V, S60A, S68T, Y79F, A87I, Y100G, Y101P
VL: B1 VL with T31S, E70Q, T72I, D92N, L97F, G101P, E106D
B3: mAb10964 (antibody, V domains shown)
VH: QVQLQESGPGLVKPSETLSLTCTVSGGSINNYYWIWIRQPPGKGLEWIGYIYHSGSTNYNPSLKSRVTISVDTSKNQFSLKVSSVTAADTAVYYCANMVRGVYEDDYWGQGTLVTVSS
VL: DIQMTQSPSSLSASVGDRVTITCRASQSISNYLNWYQQKPGKAPKLLIFAASSLRSGVPSRFSGSGSGTDFTLTISSLHPEDFATYYCQQNYNTPLTFGPGTKVDIKR
B4: mAb10989 (antibody, V domains shown)
VH: QVQLVQSGAEVKKPGASVKVSCKASGYIFTGYYMHWVRQAPGQGLEWMGWINPNSGGANYAQKFQGRVTLTRDTSITTVYMELSRLRFDDTAVYYCARGSRYDWNQNNWFDPWGQGTLVTVSS
VL: QSALTQPASVSGSPGQSITISCTGTSSDVGTYNYVSWYQQHPGKAPKLMIFDVSNRPSGVSDRFSGSKSGNTASLTISGLQAEDEADYYCSSFTTSSTVVFGGGTKLTVLG
B5: mAb10984 (antibody, V domains shown)
VH: EVQLVESGGGLVQPGGSLRLSCAASGLTVNRNYMSWVRQAPGKGLEWVSLIYSGGSTYYADSVKGRFTISRDNSKNTLYLQMNSLRLEDTAVYYCARGELGIPYGMDVWGQGTTVTVSS
VL: QSVLTQPPSVSAAPGQKVTISCSGSSSNIGNNYVSWYQQLPGTAPKLLIYDNNKRPSGIPDRFSGSKSGTSATLGITGLQTGDEADYYCGTWDSSLSAGVFGGGTKLTVLG
B6: mAb10930 (antibody, V domains shown)
VH: EVQLVESGGGLVQPGRSLRLSCAASGFTFDDYAMYWVRQAPGKGLEWVSGISWNSGSIGYADSVKGRFTISRDNAKNSLYLQMNSLRAADTALYYCAKDKDWNSRGYYYYGMDVWGQGTTVTVSS
VL: not shown
B7: mAb10939 (antibody, V domains shown)
VH: EVQLVESGGGLVQPGGSLRLSCAASGLTVSSNYMNWVRQVPGKGLEWVSVIYSGGSKFYVDSVKGRFTISRHNSKNTLYLQMNSLRPEDTAVYYCTRDAQYYGMDVWGQGTTVTVSS
VL: DIQMTQSPSSLSASVGDRVTITCRASQSISTYLHWYQQKPGEAPKLLIYAASSLQSGVPSRFSGSGSGTDFTLTISSLQPEDFATYYCQQSYSTPPEIFGQGTKLEIKR
B8: mAb10956 (antibody, V domains shown)
VH: B1 VH with I12V, V27L, S60A, S68T, Y100I, Y101K
VL: not shown
B9: mAb10966 (antibody, V domains shown)
VH: EVQLVESGGGLVQPGGSLRLSCAASGLTVSSNYMSWVRQAPGKGLEWVSVIYSGGSTFYADSVKGRFTISRDNSKNTLYLQMNSLRPEDTAVYYCAREGRIAATGYGMDVWGQGTTVTVSS
VL: not shown
B10: mAb10982 (antibody, V domains shown)
VH: EVQLVESGGGLVQPGGSLRLSCAASGLTVSSNYMSWVRQAPGKGLEWVSVIYSGGTTYYADSVKGRFTISRHNSKNTLSLQMNSLRAEDTAVYYCARGEGANYYGMDVWGQGTTVTVSS
VL: QSVLTQPPSVSGAPGQRVTISCTGSSSNIGTGYDVHWYQQLPGTAPKLLIYGNSNRPSGVPDRFSGSKSGTSASLAITGLQAEDEADYYCQSYDSSLSGYVVFGGGTKLTVLG
B11: mAb10985 (antibody, V domains shown)
VH: EVQLVESGGGLVQPGRSLRLSCAASGFTFDDYAMHWVRQAPGKGLEWVSGISWNRGSIGYADSVKGRFTISRDNAKNSLYLQMSSLRAEDTALYYCAKDGERWDSVVVPSARNGMDVWGQGTTVTVSS
VL: B10 VL with T31A, Y100S, V101Y, G105T, L109V
B12: mAb10986 (antibody, V domains shown)
VH: EVQLVESGGGLVQPGGSLRLSCAASEFTVSSNYMSWVRQAPGKGLEWVSVIYSGGSTFYADSVKGRFTISRDNSKNTLYLQMNSLRAEDTAVYYCARALPYGDLHFDYWGQGTLVTVSS
VL: B10 VL with S54T, G99D, Y100S, V101Y, G105T, L109V
B13: mAb10938 (antibody, V domains shown)
VH: EVQLVESGGGLVQPGGSLRLSCAVSGFTVSSNYMSWVRQAPGKGLEWVSLIYSGGSTFYADSVKGRFTISRHNSKNTLYLQMNSLRAEDTAVYYCAREGGYSYDYNYWGQGTLVTVSS
VL: DIQMTQSPSSLSASVGDRVTITCQASQDIRNYLNWYQQKPGKAPKLLIYDASNLETGVPSRFSGIGSGTDFTFTISSLQPEDIATYYCQQYDNLPITFGQGTRLEIKR
B14: mAb10954 (antibody, V domains shown)
VH: EVQLVESGGGLVQPGGSLRLSCAASGITVSSNYMSWVRQAPGKGLEWVSLIYSGGSTYYADSVKGRFTISRDNSKNTLYLQMNSLRVEDTAVYYCARDHGMAAAGYNYWGQGTLVTVSS
VL: B13 VL with R30N, N31K, I65S, S76N, I83F, Y87F, I96P, T97A, R103K, L104V
B15: mAb10967 (antibody, V domains shown)
VH: EVQLVESGGGLVQPGGSLRLSCAASGFTVSSNYMSWVRQAPGKGLEWVSVIYPGGSTFYADSVKGRFTISRDNSKNTLYLQMNSLRAEDTAVYYCARDQRDFAWGQGTLVTVSS
VL: B13 VL with R30S, I65S, S77G, I96P
B16: mAb10955 (antibody, V domains shown)
VH: EVQLVESGGGLVQPGGSLRVSCAASGFTVSRNYMSWVRQAPGKGLEWVSVIYSGGSTFYADSVKGRFTISRDNSKNTLYLQMNSLRAEDTAIYYCARYIPRFDPWGQGTLVTVSS
VL: B13 VL with R30S, Y36F, K42R, I65S

Numbering of substitutions follows the chain as printed. A value given as a limit tells only on which side of the number the result lay.

Experimental findings from US20260234738A1 (Regeneron, published 2026) are described below.

One may read the Kd as the free concentration of one partner at which half of the binding sites on the other are occupied at equilibrium, for simple one-to-one binding. Lower therefore signals a tighter complex. A word on the koff: it is a measure of how fast the partners let go of each other. Low readings indicate slow dissociation, high ones fast dissociation. One may read the kon as the rate constant with which the complex forms. A high value points to fast association. Usually t½ stands for the time needed for the level to fall by half in the phase considered. A high value points to slow loss.

In this test the target is SARS-COV-2 RBD extracellular domain expressed with a C-terminal mouse IgG2a (SARS-CoV-2).
As to B1, the Kd was no more than 0.0253 nM, the koff was no more than 1e-05 s⁻¹, the kon worked out at 395000 M⁻¹ s⁻¹ and the t½ was no less than 19.2 h.
For B2, the Kd is no more than 0.0279 nM and the t½ was no less than 19.2 h.
For B3, in that order: no more than 0.007 nM and no less than 19.2 h.
In the case of B4, the t½ was 2.07 h.
The molecule B5 gave a Kd of no more than 0.0249 nM and a t½ of no less than 19.2 h.
Regarding B6, the Kd is no more than 0.0431 nM, the off-rate constant (koff) is no more than 1e-05 s⁻¹, the on-rate constant (kon) came to 232000 M⁻¹ s⁻¹ and the t½ was no less than 19.2 h.
For B7, in that order: 0.0387 nM, 1.15e-05 s⁻¹, 299000 M⁻¹ s⁻¹ and 16.7 h.
B8 came in with a Kd of 0.395 nM and a t½ of 1.3 h.
In turn, B9 yielded a Kd of no more than 0.0249 nM and a t½ of no less than 19.2 h.
In turn, B10 returned a dissociation constant (Kd) of 0.0544 nM, an off-rate (koff) of 1.69e-05 s⁻¹, a kon of 310000 M⁻¹ s⁻¹ and a t½ of 11.4 h.
Molecule B11 yielded a dissociation constant Kd of 0.0117 nM and a t½ of 15.2 h.
The molecule B12 registered a Kd of no more than 0.0158 nM and a t½ of no less than 19.2 h.
B13: the equilibrium dissociation constant (Kd) was no more than 0.0322 nM and the t½ is no less than 19.2 h.
For B14, the Kd was no more than 0.0173 nM and the t½ is no less than 19.2 h.
As for B15, the dissociation constant (Kd) was no more than 0.0251 nM and the t½ was no less than 19.2 h.
Consider B16, for which binding was put at a Kd of 0.0592 nM and the t½ was 8.23 h.
